# Assay results taken from publication PMC9482650, “Quantitative fragmentomics allow affinity mapping of interactomes” (Nature Communications, 2022).
# T1: MPP7, Q5T2T1
# T1 sequence (Q5T2T1 134-230, limits assumed, looked up): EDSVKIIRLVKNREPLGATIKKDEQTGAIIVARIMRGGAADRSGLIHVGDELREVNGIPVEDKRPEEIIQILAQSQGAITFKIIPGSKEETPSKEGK
# T2: MPDZ_5, O75970
# T2 sequence (O75970 695-796, limits assumed, looked up): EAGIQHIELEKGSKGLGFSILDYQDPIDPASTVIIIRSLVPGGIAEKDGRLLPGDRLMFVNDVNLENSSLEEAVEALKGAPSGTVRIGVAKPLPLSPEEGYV
# T3: RHPN1, Q8TCX5
# T3 sequence (Q8TCX5 508-602, limits assumed, looked up): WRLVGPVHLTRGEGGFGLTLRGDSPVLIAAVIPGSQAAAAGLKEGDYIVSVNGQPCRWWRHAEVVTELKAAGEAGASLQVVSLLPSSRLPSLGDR
# T4: PDZD2_2, O15018
# T4 sequence (O15018 329-429, limits assumed, looked up): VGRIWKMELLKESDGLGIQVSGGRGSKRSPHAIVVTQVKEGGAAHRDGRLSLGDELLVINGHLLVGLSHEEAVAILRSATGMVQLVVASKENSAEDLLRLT
# T5: MPP2, Q14168
# T5 sequence (Q14168 180-250, limits assumed, looked up): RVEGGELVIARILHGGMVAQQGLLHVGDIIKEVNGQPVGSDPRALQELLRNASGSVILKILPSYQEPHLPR
# T6: APBA2_2, Q99767
# T6 sequence (Q99767 654-744, limits assumed, looked up): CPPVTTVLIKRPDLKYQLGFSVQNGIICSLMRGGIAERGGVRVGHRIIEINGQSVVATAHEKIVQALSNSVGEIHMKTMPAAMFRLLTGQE
# T7: MPP6, Q9NZW5
# T7 sequence (Q9NZW5 125-219, limits assumed, looked up): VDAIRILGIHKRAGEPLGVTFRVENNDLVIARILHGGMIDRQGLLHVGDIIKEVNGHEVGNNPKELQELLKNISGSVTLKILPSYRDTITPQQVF
# T8: NHERF3_1, Q5T2W1
# T8 sequence (Q5T2W1 4-100, limits assumed, looked up): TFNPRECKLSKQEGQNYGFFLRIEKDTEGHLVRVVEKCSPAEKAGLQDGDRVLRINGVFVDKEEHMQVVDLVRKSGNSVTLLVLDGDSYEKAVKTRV
# T9: GRIP1_4, Q9Y3R0
# T9 sequence (Q9Y3R0 467-571, limits assumed, looked up): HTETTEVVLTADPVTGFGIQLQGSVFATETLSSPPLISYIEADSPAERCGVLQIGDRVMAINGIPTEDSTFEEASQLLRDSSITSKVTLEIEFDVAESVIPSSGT
# T10: LRRC7, Q96NW7
# T10 sequence (Q96NW7 1440-1537, limits assumed, looked up): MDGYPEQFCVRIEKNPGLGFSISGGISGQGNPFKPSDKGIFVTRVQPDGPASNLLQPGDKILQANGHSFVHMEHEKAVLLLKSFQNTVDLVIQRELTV
# T11: PDZD7_3, Q9H5P4
# T11 sequence (Q9H5P4 857-944, limits assumed, looked up): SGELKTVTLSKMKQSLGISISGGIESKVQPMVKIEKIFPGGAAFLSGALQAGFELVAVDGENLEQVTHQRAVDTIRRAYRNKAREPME
# T12: TJP3_3, O95049
# T12 sequence (O95049 375-456, limits assumed, looked up): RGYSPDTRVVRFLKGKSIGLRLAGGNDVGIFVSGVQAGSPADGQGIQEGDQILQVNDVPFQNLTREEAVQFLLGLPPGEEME
# T13: SYNJ2BP, P57105
# T13 sequence (P57105 8-110, limits assumed, looked up): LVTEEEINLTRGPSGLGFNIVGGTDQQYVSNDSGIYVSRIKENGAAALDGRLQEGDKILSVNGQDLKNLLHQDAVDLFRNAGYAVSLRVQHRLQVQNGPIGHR
# Assays:
# Assay in all cases: holdup assay
# Parameters in all cases: key: below the threshold = too weak to quantify, mostly under pKd 3.1 to 4
# [1] = biological target: T1, MPP7, Q5T2T1
# [2] = biological target: T2, MPDZ_5, O75970
# [3] = biological target: T3, RHPN1, Q8TCX5
# [4] = biological target: T4, PDZD2_2, O15018
# [5] = biological target: DLG4_3, P78352
# [6] = biological target: IL16_1, Q14005
# [7] = biological target: T5, MPP2, Q14168
# [8] = biological target: T6, APBA2_2, Q99767
# [9] = biological target: LNX1_2, Q8TBB1
# [10] = biological target: GRIP2_6, Q9C0E4
# [11] = biological target: T7, MPP6, Q9NZW5
# [12] = biological target: DLG1_1, Q12959
# [13] = biological target: MAGI2_4, Q86UL8
# [14] = biological target: SCRIB_2, Q14160
# [15] = biological target: T8, NHERF3_1, Q5T2W1
# [16] = biological target: LNX1_1, Q8TBB1
# [17] = biological target: T9, GRIP1_4, Q9Y3R0
# [18] = biological target: MAGI1_2, Q96QZ7
# [19] = biological target: T10, LRRC7, Q96NW7
# [20] = biological target: HTRA2, O43464
# [21] = biological target: GORASP1, Q9BQQ3
# [22] = biological target: T11, PDZD7_3, Q9H5P4
# [23] = biological target: T12, TJP3_3, O95049
# [24] = biological target: FRMPD2_3, Q68DX3
# [25] = biological target: T13, SYNJ2BP, P57105
# [26] = modified: phospho on T at position -2 from the C-terminal residue
# [27] = plain residues with an end cap or a label only (N-terminal biotin on a linker: ado-ado)
# Sequence of MAGI1_2, Q96QZ7 (Q96QZ7 456-580): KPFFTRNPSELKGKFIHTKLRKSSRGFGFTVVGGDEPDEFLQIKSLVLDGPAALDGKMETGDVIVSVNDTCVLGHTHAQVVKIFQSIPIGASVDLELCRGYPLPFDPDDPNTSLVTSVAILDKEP
# Sequence of LNX1_1, Q8TBB1 (Q8TBB1 261-371): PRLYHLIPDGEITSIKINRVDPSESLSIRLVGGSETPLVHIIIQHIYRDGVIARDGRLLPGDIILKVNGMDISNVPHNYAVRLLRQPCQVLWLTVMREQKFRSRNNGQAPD
# Sequence of DLG4_3, P78352 (P78352 306-403): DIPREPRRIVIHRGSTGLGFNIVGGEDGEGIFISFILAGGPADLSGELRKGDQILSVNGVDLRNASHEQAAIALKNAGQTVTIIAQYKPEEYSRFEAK
# Sequence of GRIP2_6, Q9C0E4 (Q9C0E4 648-740): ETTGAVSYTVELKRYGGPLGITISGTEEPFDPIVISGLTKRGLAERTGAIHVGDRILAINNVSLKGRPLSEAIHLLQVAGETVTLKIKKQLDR
# Sequence of LNX1_2, Q8TBB1 (Q8TBB1 371-470): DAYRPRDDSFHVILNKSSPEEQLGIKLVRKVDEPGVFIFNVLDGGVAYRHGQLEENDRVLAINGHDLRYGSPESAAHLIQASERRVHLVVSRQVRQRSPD
# Sequence of IL16_1, Q14005 (Q14005 210-306): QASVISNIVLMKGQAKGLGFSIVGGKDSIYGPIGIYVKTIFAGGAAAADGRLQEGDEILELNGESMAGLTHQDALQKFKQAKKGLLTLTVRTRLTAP
# Sequence of SCRIB_2, Q14160 (Q14160 857-960): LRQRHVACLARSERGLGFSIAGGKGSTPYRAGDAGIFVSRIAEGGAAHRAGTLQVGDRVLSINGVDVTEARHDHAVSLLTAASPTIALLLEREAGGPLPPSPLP
# Sequence of GORASP1, Q9BQQ3 (Q9BQQ3 1-208): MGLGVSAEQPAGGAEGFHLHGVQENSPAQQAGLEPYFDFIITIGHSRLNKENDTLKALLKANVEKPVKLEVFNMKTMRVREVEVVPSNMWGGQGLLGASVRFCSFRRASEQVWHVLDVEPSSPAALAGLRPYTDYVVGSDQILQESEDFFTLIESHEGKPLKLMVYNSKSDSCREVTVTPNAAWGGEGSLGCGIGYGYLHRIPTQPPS
# Sequence of FRMPD2_3, Q68DX3 (Q68DX3 1073-1166): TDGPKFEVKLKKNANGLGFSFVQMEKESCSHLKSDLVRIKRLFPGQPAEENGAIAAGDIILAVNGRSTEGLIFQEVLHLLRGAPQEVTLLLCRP
# Sequence of MAGI2_4, Q86UL8 (Q86UL8 772-865): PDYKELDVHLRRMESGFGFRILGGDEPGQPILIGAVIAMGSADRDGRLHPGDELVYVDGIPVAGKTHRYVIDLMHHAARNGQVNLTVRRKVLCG
# Sequence of HTRA2, O43464 (O43464 355-458): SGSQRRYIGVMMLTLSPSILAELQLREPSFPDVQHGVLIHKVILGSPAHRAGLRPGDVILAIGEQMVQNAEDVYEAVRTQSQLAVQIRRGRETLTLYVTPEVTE
binder,measurement,setting,value
"SSRTRRETQL [HPV16-E6_-2P, P03126]",pKd,[1]; [26],below the threshold
same,pKd,[2]; [26],below the threshold
same,pKd,[3]; [26],below the threshold
same,pKd,[4]; [26],below the threshold
same,pKd,[5]; [26],below the threshold
same,pKd,[6]; [26],below the threshold
same,pKd,[7]; [26],below the threshold
same,pKd,[8]; [26],below the threshold
same,pKd,[9]; [26],below the threshold
same,pKd,[10]; [26],below the threshold
same,pKd,[11]; [26],below the threshold
same,pKd,[12]; [26],below the threshold
same,pKd,[13]; [26],below the threshold
same,pKd,[14]; [26],below the threshold
same,pKd,[15]; [26],3.79
same,pKd,[16]; [26],below the threshold
same,pKd,[17]; [26],below the threshold
same,pKd,[18]; [26],below the threshold
same,pKd,[19]; [26],below the threshold
same,pKd,[20]; [26],below the threshold
same,pKd,[21]; [26],below the threshold
same,pKd,[22]; [26],below the threshold
same,pKd,[23]; [26],below the threshold
same,pKd,[24]; [26],below the threshold
same,pKd,[25]; [26],below the threshold
"QSGLYESEEL [MYOT, Q9UBF9]",pKd,[1]; [27],below the threshold
same,pKd,[2]; [27],below the threshold
same,pKd,[3]; [27],below the threshold
same,pKd,[4]; [27],below the threshold
same,pKd,[5]; [27],below the threshold
same,pKd,[6]; [27],below the threshold
same,pKd,[7]; [27],below the threshold
same,pKd,[8]; [27],below the threshold
same,pKd,[9]; [27],below the threshold
same,pKd,[10]; [27],4.67
same,pKd,[11]; [27],below the threshold
same,pKd,[12]; [27],below the threshold
same,pKd,[13]; [27],below the threshold
same,pKd,[14]; [27],below the threshold
same,pKd,[15]; [27],4.44
same,pKd,[16]; [27],below the threshold
same,pKd,[17]; [27],below the threshold
same,pKd,[18]; [27],below the threshold
same,pKd,[19]; [27],below the threshold
same,pKd,[20]; [27],below the threshold
same,pKd,[21]; [27],below the threshold
same,pKd,[22]; [27],3.63
same,pKd,[23]; [27],below the threshold
same,pKd,[24]; [27],below the threshold
same,pKd,[25]; [27],3.59
"PYSESDDDWC [CACNA1A, O00555]",pKd,[1]; [27],below the threshold
same,pKd,[2]; [27],below the threshold
same,pKd,[3]; [27],below the threshold
same,pKd,[4]; [27],5.3
same,pKd,[5]; [27],below the threshold
same,pKd,[6]; [27],below the threshold
same,pKd,[7]; [27],below the threshold
same,pKd,[8]; [27],below the threshold
same,pKd,[9]; [27],below the threshold
same,pKd,[10]; [27],below the threshold
same,pKd,[11]; [27],below the threshold
same,pKd,[12]; [27],below the threshold
same,pKd,[13]; [27],below the threshold
same,pKd,[14]; [27],below the threshold
same,pKd,[15]; [27],3.95
same,pKd,[16]; [27],below the threshold
same,pKd,[17]; [27],below the threshold
same,pKd,[18]; [27],below the threshold
same,pKd,[19]; [27],below the threshold
same,pKd,[20]; [27],below the threshold
same,pKd,[21]; [27],below the threshold
same,pKd,[22]; [27],below the threshold
same,pKd,[23]; [27],4.39
same,pKd,[24]; [27],below the threshold
same,pKd,[25]; [27],3.6
"EDGESWEYQI [TRPV6, Q9H1D0]",pKd,[1]; [27],5.06
same,pKd,[2]; [27],below the threshold
same,pKd,[3]; [27],below the threshold
same,pKd,[4]; [27],4.66
same,pKd,[5]; [27],below the threshold
same,pKd,[6]; [27],below the threshold
same,pKd,[7]; [27],3.57
same,pKd,[8]; [27],below the threshold
same,pKd,[9]; [27],below the threshold
same,pKd,[10]; [27],3.8
same,pKd,[11]; [27],3.81
same,pKd,[12]; [27],below the threshold
same,pKd,[13]; [27],below the threshold
same,pKd,[14]; [27],below the threshold
same,pKd,[15]; [27],below the threshold
same,pKd,[16]; [27],below the threshold
same,pKd,[17]; [27],below the threshold
same,pKd,[18]; [27],below the threshold
same,pKd,[19]; [27],below the threshold
same,pKd,[20]; [27],below the threshold
same,pKd,[21]; [27],4.63
same,pKd,[22]; [27],below the threshold
same,pKd,[23]; [27],below the threshold
same,pKd,[24]; [27],below the threshold
same,pKd,[25]; [27],below the threshold
"AQRARSPSDV [GPR12, P47775]",pKd,[1]; [27],3.59
same,pKd,[2]; [27],below the threshold
same,pKd,[3]; [27],below the threshold
same,pKd,[4]; [27],4.71
same,pKd,[5]; [27],below the threshold
same,pKd,[6]; [27],below the threshold
same,pKd,[7]; [27],below the threshold
same,pKd,[8]; [27],below the threshold
same,pKd,[9]; [27],below the threshold
same,pKd,[10]; [27],below the threshold
same,pKd,[11]; [27],below the threshold
same,pKd,[12]; [27],below the threshold
same,pKd,[13]; [27],below the threshold
same,pKd,[14]; [27],below the threshold
same,pKd,[15]; [27],below the threshold
same,pKd,[16]; [27],3.79
same,pKd,[17]; [27],below the threshold
same,pKd,[18]; [27],below the threshold
same,pKd,[19]; [27],below the threshold
same,pKd,[20]; [27],below the threshold
same,pKd,[21]; [27],below the threshold
same,pKd,[22]; [27],3.48
same,pKd,[23]; [27],below the threshold
same,pKd,[24]; [27],below the threshold
same,pKd,[25]; [27],4.14
